According to PMC4175327, “Distinguishing Closely Related Amyloid Precursors Using an RNA Aptamer*”:

Tests used:
[1] = target: T1, human beta2-microglobulin (hβ2m), monomer (human, UniProt P61769 21-119); test: intrinsic Trp fluorescence quenching; EC50; Hill slope 0.99 ± 0.06; 1 uM protein; 50 mM MES, 120 mM NaCl, pH 6.2; fluorescence and NMR at 25 °C (NMR plus 0.02% azide, 0.1 mM EDTA, 10% D2O); SPR temperature not stated; conditions: tags: biotin (N terminus, Lys-7 and/or Lys-92), immobilized, for SPR; hairpin with bulges, U tetraloop
T1 sequence (P61769 21-119): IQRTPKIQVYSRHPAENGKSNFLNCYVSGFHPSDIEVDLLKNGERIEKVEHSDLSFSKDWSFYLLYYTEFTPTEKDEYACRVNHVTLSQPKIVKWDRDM

[2] = target: T1, human beta2-microglobulin (hβ2m), …; test: intrinsic Trp fluorescence quenching; 1 uM protein; 50 mM MES, 120 mM NaCl, pH 6.2; fluorescence and NMR at 25 °C (NMR plus 0.02% azide, 0.1 mM EDTA, 10% D2O); SPR temperature not stated; conditions: tags: biotin (N terminus, Lys-7 and/or Lys-92), immobilized, for SPR; hairpin with bulges, U tetraloop

Binder | apparent K (half saturation) [1] | binding result [2]
GGGAAUUCUGAGCUACUCCCUUUUGGGCCCGGCUAUGAUUCCCG (XNA, 2'-fluoro C and U (3'-terminal G is ribo)) [2'F B6min] | 223 ± 10 nM | 
GGGAAUUCUGAGCUACUCCCUUUUGGGCCCGGCUAUGAUUCCCG (structured_RNA, none (2'OH)) [2'OH B6min] |  | no binding
